This note sets out measurements from patent US20150374794A1 (Novo Nordisk, published 2015).

For orientation: IC50 means the concentration that inhibits the measured activity by half.

To fix the notation:
B1: N^ε16-[(4S)-4-carboxy-4-[[2-[2-[2-[[2-[2-[2-[[(4S)-4-carboxy-4-[[(4S)-4-carboxy-4-(17-carboxyheptadecanoylamino)butanoyl]amino]butanoyl]amino]ethoxy]ethoxy]acet … (peptide)
peptide: H[Aib]HGTFTSDLSKYLEK([γGlu-AEEA-AEEA-γGlu-γGlu-C18 diacid])RRAREFVAWLLST-NH2
modifications: N-terminus assumed
SMILES: CC(C)C[C@H](NC(=O)[C@H](Cc1c[nH]c2ccccc12)NC(=O)[C@H](C)NC(=O)[C@@H](NC(=O)[C@H](Cc1ccccc1)NC(=O)[C@H](CCC(=O)O)NC(=O)[C@H](CCCNC(=N)N)NC(=O)[C@H](C)NC(=O)[C@H](CCCNC(=N)N)NC(=O)[C@H](CCCNC(=N)N)NC(=O)[C@H](CCCCNC(=O)CC[C@H](NC(=O)COCCOCCNC(=O)COCCOCCNC(=O)CC[C@H](NC(=O)CC[C@H](NC(=O)CCCCCCCCCCCCCCCCC(=O)O)C(=O)O)C(=O)O)C(=O)O)NC(=O)[C@H](CCC(=O)O)NC(=O)[C@H](CC(C)C)NC(=O)[C@H](Cc1ccc(O)cc1)NC(=O)[C@H](CCCCN)NC(=O)[C@H](CO)NC(=O)[C@H](CC(C)C)NC(=O)[C@H](CC(=O)O)NC(=O)[C@H](CO)NC(=O)[C@@H](NC(=O)[C@H](Cc1ccccc1)NC(=O)[C@@H](NC(=O)CNC(=O)[C@H](Cc1c[nH]cn1)NC(=O)C(C)(C)NC(=O)[C@@H](N)Cc1c[nH]cn1)[C@@H](C)O)[C@@H](C)O)C(C)C)C(=O)N[C@@H](CC(C)C)C(=O)N[C@@H](CO)C(=O)N[C@H](C(N)=O)[C@@H](C)O
B2: N^ε16-[(4S)-4-carboxy-4-[[(4S)-4-carboxy-4-[[2-[2-[2-[[(4S)-4-carboxy-4-[[(4S)-4-carboxy-4-(17-carboxyheptadecanoylamino)butanoyl]amino]butanoyl]amino]ethoxy]et … (peptide)
peptide: H[Aib]QGTFTSDLSKYLDK([γGlu-γGlu-AEEA-γGlu-γGlu-C18 diacid])RRAQEFVQWLLNT-NH2
modifications: N-terminus assumed
SMILES: CC(C)C[C@H](NC(=O)[C@H](Cc1ccc(O)cc1)NC(=O)[C@H](CCCCN)NC(=O)[C@H](CO)NC(=O)[C@H](CC(C)C)NC(=O)[C@H](CC(=O)O)NC(=O)[C@H](CO)NC(=O)[C@@H](NC(=O)[C@H](Cc1ccccc1)NC(=O)[C@@H](NC(=O)CNC(=O)[C@H](CCC(N)=O)NC(=O)C(C)(C)NC(=O)[C@@H](N)Cc1c[nH]cn1)[C@@H](C)O)[C@@H](C)O)C(=O)N[C@@H](CC(=O)O)C(=O)N[C@@H](CCCCNC(=O)CC[C@H](NC(=O)CC[C@H](NC(=O)COCCOCCNC(=O)CC[C@H](NC(=O)CC[C@H](NC(=O)CCCCCCCCCCCCCCCCC(=O)O)C(=O)O)C(=O)O)C(=O)O)C(=O)O)C(=O)N[C@@H](CCCNC(=N)N)C(=O)N[C@@H](CCCNC(=N)N)C(=O)N[C@@H](C)C(=O)N[C@@H](CCC(N)=O)C(=O)N[C@@H](CCC(=O)O)C(=O)N[C@@H](Cc1ccccc1)C(=O)N[C@H](C(=O)N[C@@H](CCC(N)=O)C(=O)N[C@@H](Cc1c[nH]c2ccccc12)C(=O)N[C@@H](CC(C)C)C(=O)N[C@@H](CC(C)C)C(=O)N[C@@H](CC(N)=O)C(=O)N[C@H](C(N)=O)[C@@H](C)O)C(C)C
B3: N^ε28-[2-[2-[2-[[2-[2-[2-[[(4S)-4-carboxy-4-[[(4S)-4-carboxy-4-[[(4S)-4-carboxy-4-(17-carboxyheptadecanoylamino)butanoyl]amino]butanoyl]amino]butanoyl]amino]eth … (peptide)
peptide: H[Aib]QGTFTSDLSKYLESRRARDFVQWLLK([AEEA-AEEA-γGlu-γGlu-γGlu-C18 diacid])T-NH2
modifications: N-terminus assumed
SMILES: CC(C)C[C@H](NC(=O)[C@H](Cc1ccc(O)cc1)NC(=O)[C@H](CCCCN)NC(=O)[C@H](CO)NC(=O)[C@H](CC(C)C)NC(=O)[C@H](CC(=O)O)NC(=O)[C@H](CO)NC(=O)[C@@H](NC(=O)[C@H](Cc1ccccc1)NC(=O)[C@@H](NC(=O)CNC(=O)[C@H](CCC(N)=O)NC(=O)C(C)(C)NC(=O)[C@@H](N)Cc1c[nH]cn1)[C@@H](C)O)[C@@H](C)O)C(=O)N[C@@H](CCC(=O)O)C(=O)N[C@@H](CO)C(=O)N[C@@H](CCCNC(=N)N)C(=O)N[C@@H](CCCNC(=N)N)C(=O)N[C@@H](C)C(=O)N[C@@H](CCCNC(=N)N)C(=O)N[C@@H](CC(=O)O)C(=O)N[C@@H](Cc1ccccc1)C(=O)N[C@H](C(=O)N[C@@H](CCC(N)=O)C(=O)N[C@@H](Cc1c[nH]c2ccccc12)C(=O)N[C@@H](CC(C)C)C(=O)N[C@@H](CC(C)C)C(=O)N[C@@H](CCCCNC(=O)COCCOCCNC(=O)COCCOCCNC(=O)CC[C@H](NC(=O)CC[C@H](NC(=O)CC[C@H](NC(=O)CCCCCCCCCCCCCCCCC(=O)O)C(=O)O)C(=O)O)C(=O)O)C(=O)N[C@H](C(N)=O)[C@@H](C)O)C(C)C
B4: N^ε16-[(4S)-4-carboxy-4-[[(4S)-4-carboxy-4-[[2-[2-[2-[[2-[2-[2-[[(4S)-4-carboxy-4-(17-carboxyheptadecanoylamino)butanoyl]amino]ethoxy]ethoxy]acetyl]amino]ethoxy … (peptide)
peptide: H[Aib]QGTFTSDLSKYLDK([γGlu-γGlu-AEEA-AEEA-γGlu-C18 diacid])RRAREFVQWLLNT-NH2
modifications: N-terminus assumed
SMILES: CC(C)C[C@H](NC(=O)[C@H](Cc1ccc(O)cc1)NC(=O)[C@H](CCCCN)NC(=O)[C@H](CO)NC(=O)[C@H](CC(C)C)NC(=O)[C@H](CC(=O)O)NC(=O)[C@H](CO)NC(=O)[C@@H](NC(=O)[C@H](Cc1ccccc1)NC(=O)[C@@H](NC(=O)CNC(=O)[C@H](CCC(N)=O)NC(=O)C(C)(C)NC(=O)[C@@H](N)Cc1c[nH]cn1)[C@@H](C)O)[C@@H](C)O)C(=O)N[C@@H](CC(=O)O)C(=O)N[C@@H](CCCCNC(=O)CC[C@H](NC(=O)CC[C@H](NC(=O)COCCOCCNC(=O)COCCOCCNC(=O)CC[C@H](NC(=O)CCCCCCCCCCCCCCCCC(=O)O)C(=O)O)C(=O)O)C(=O)O)C(=O)N[C@@H](CCCNC(=N)N)C(=O)N[C@@H](CCCNC(=N)N)C(=O)N[C@@H](C)C(=O)N[C@@H](CCCNC(=N)N)C(=O)N[C@@H](CCC(=O)O)C(=O)N[C@@H](Cc1ccccc1)C(=O)N[C@H](C(=O)N[C@@H](CCC(N)=O)C(=O)N[C@@H](Cc1c[nH]c2ccccc12)C(=O)N[C@@H](CC(C)C)C(=O)N[C@@H](CC(C)C)C(=O)N[C@@H](CC(N)=O)C(=O)N[C@H](C(N)=O)[C@@H](C)O)C(C)C
B5: N^ε28-[2-[2-[2-[[2-[2-[2-[[(4S)-4-carboxy-4-[[(4S)-4-carboxy-4-[[(4S)-4-carboxy-4-(17-carboxyheptadecanoylamino)butanoyl]amino]butanoyl]amino]butanoyl]amino]eth … (peptide)
peptide: H[Aib]QGTFTSDLSKYLDARRARDFVQWLLK([AEEA-AEEA-γGlu-γGlu-γGlu-C18 diacid])T-NH2
modifications: N-terminus assumed
SMILES: CC(C)C[C@H](NC(=O)[C@H](Cc1ccc(O)cc1)NC(=O)[C@H](CCCCN)NC(=O)[C@H](CO)NC(=O)[C@H](CC(C)C)NC(=O)[C@H](CC(=O)O)NC(=O)[C@H](CO)NC(=O)[C@@H](NC(=O)[C@H](Cc1ccccc1)NC(=O)[C@@H](NC(=O)CNC(=O)[C@H](CCC(N)=O)NC(=O)C(C)(C)NC(=O)[C@@H](N)Cc1c[nH]cn1)[C@@H](C)O)[C@@H](C)O)C(=O)N[C@@H](CC(=O)O)C(=O)N[C@@H](C)C(=O)N[C@@H](CCCNC(=N)N)C(=O)N[C@@H](CCCNC(=N)N)C(=O)N[C@@H](C)C(=O)N[C@@H](CCCNC(=N)N)C(=O)N[C@@H](CC(=O)O)C(=O)N[C@@H](Cc1ccccc1)C(=O)N[C@H](C(=O)N[C@@H](CCC(N)=O)C(=O)N[C@@H](Cc1c[nH]c2ccccc12)C(=O)N[C@@H](CC(C)C)C(=O)N[C@@H](CC(C)C)C(=O)N[C@@H](CCCCNC(=O)COCCOCCNC(=O)COCCOCCNC(=O)CC[C@H](NC(=O)CC[C@H](NC(=O)CC[C@H](NC(=O)CCCCCCCCCCCCCCCCC(=O)O)C(=O)O)C(=O)O)C(=O)O)C(=O)N[C@H](C(N)=O)[C@@H](C)O)C(C)C

Numbered stars: 1 amine (or outer) side, 2 acyl side, 3 side chain; on linkers, the order of the positions; unused ones are H or OH. Square brackets hold non-standard residues; d marks the D form. Side chains are listed from the residue outwards. Ends that are not written are not given here. * marks the point of attachment. C18 diacid = O=C(O)CCCCCCCCCCCCCCCCC(=O)*; γGlu = O=C(O)[C@H](CCC(=O)[*:2])N[*:1]; AEEA = NCCOCCOCC(=O)O; Aib = CC(C)(N)C(=O)O

T1 sequence (P47871 26-477): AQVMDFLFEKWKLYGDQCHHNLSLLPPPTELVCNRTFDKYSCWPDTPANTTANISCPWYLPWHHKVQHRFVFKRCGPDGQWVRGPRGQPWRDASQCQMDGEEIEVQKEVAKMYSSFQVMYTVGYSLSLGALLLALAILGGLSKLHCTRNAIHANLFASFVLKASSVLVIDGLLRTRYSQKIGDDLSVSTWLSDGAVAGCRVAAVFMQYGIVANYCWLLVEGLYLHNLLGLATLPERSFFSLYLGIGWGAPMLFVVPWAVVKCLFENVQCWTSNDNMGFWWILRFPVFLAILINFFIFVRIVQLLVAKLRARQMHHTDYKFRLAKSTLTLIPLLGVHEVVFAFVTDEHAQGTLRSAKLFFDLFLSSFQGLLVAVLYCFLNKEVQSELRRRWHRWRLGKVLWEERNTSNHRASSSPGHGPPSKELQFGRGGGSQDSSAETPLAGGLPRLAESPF

The first assay concerns the target T1, human glucagon receptor (human, UniProt P47871 26-477).
T1 construct: whole, on cells; the potency assay used whole cells (clone pLJ6'-4-25); also called GlucR; hGCGR
Nature of the assay: displacement of 125I-glucagon, membranes with human glucagon receptor, SPA. Here is the method:
The receptor binding of each compound to the human glucagon receptor was measured in a displacement binding assay. […] Each derivative was added in a series of concentrations to isolated membranes containing the human glucagon receptor and displacement of the labelled ligand is monitored. The receptor binding was reported as the concentration at which half of the labelled ligand is displaced from the receptor, the IC₅₀ value.
On the technique in general: Displacement assays read how much labelled ligand stays bound in the presence of the test substance.
For H[Aib]QGTFTSDLSKYLESRRAREFVQWLLKT-NH2 (not fully specified (residue 28)), the IC50 is 6.7 nM.
The molecule B1 showed an IC50 of 1.9 nM.
Turning to B2, the IC50 worked out at 5.9 nM.
On the same count and under the same terms, the same measure for B3: 19 nM; for H[Aib]QGTFTSDLSKYLESKRAREFVQWLLK([γGlu-γGlu-Ser-Glu-Ser-γGlu-γGlu-C18 diacid])T-NH2: 1.7 nM; for B4: 1.2 nM.
As for B5, the IC50 is 2.6 nM. This IC50 lies about 2.2-fold higher than the previous one.

For another assay, the target named is T2, human GLP-1 receptor (human, UniProt P43220 24-463). Nature of the assay: cell-based or functional assay.
In the case of H[Aib]QGTFTSDLSKYLESRRAREFVQWLLKT-NH2 (not fully specified (residue 28)), the “EC50 GLP-1R, CRE luciferase reporter gene assay in BHK cells” value (“EC50 GLP-1R” for short) came to 0.0044 nM.
Turning to B1, the “EC50 GLP-1R” value was 0.0327 nM.
With B2, the “EC50 GLP-1R” value was 0.0266 nM.
Same read-out and setting: the same measure for B3: 0.003 nM; for H[Aib]QGTFTSDLSKYLESKRAREFVQWLLK([γGlu-γGlu-Ser-Glu-Ser-γGlu-γGlu-C18 diacid])T-NH2: 0.0027 nM; for B4: 0.0092 nM.
Consider B5, for which the “EC50 GLP-1R” value is 0.0043 nM.

The target of another assay is T1, human glucagon receptor. Nature of the assay: cell-based or functional assay.
In the case of H[Aib]QGTFTSDLSKYLESRRAREFVQWLLKT-NH2 (not fully specified (residue 28)), the “EC50 GlucR, CRE luciferase reporter gene assay in BHK cells” value (“EC50 GlucR” below) was found to be 0.0624 nM.
Turning to B1, the “EC50 GlucR” value turned out to be 0.0068 nM.
With B2, the “EC50 GlucR” value was 0.0588 nM.
Consider B3, for which the “EC50 GlucR” value amounted to 0.129 nM.
Regarding B4, the “EC50 GlucR” value amounted to 0.0423 nM.
As for B5, the “EC50 GlucR” value worked out at 0.0113 nM.

Another assay has as its target T2, human GLP-1 receptor. Nature of the assay: displacement of 125I-GLP-1(7-36)NH2, membranes with human GLP-1R, SPA. Here is the method:
The receptor binding of each compound to the human GLP-1 receptor was measured in a displacement binding assay. […] Each derivative was added in a series of concentrations to isolated membranes containing the human GLP-1 receptor and displacement of the labelled ligand was monitored. The receptor binding was reported as the concentration at which half of the labelled ligand was displaced from the receptor, the IC₅₀ value.
In turn, H[Aib]QGTFTSDLSKYLESRRAREFVQWLLKT-NH2 (not fully specified (residue 28)) had an IC50 of 0.4 nM.
As for B1, the IC50 was 3.9 nM.
Molecule B2 returned an IC50 of 1.4 nM.
Still for that read-out and setting: the same measure for B3: 0.2 nM; for H[Aib]QGTFTSDLSKYLESKRAREFVQWLLK([γGlu-γGlu-Ser-Glu-Ser-γGlu-γGlu-C18 diacid])T-NH2: 0.2 nM; for B4: 0.5 nM.
As to B5, the IC50 worked out at 0.2 nM.
